B1: CSPα: cysteine string protein alpha, DnaJ domain-containing protein chaperone, myc-tagged, expressed in CAD cells (protein, UniProt Q9H3Z4 1-198, looked up)
DnaJ homolog subfamily C …: MADQRQRSLSTSGESLYHVLGLDKNATSDDIKKSYRKLALKYHPDKNPDNPEAADKFKEINNAHAILTDATKRNIYDKYGSLGLYVAEQFGEENVNTYFVLSSWWAKALFVFCGLLTCCYCCCCLCCCFNCCCGKCKPKAPEGEETEFYVSPEDLEAQLQSDEREATDTPIVIQPASATETTQLTADSHPSYHTDGFN
modifications: myc tag
notes: cysteine string protein alpha, DnaJ domain-containing protein chaperone, myc-tagged, expressed in CAD cells

Key:
Type in all cases: cell-based
[1] = test system: CAD cells; test: EV secretion of GFP-tagged 72Q huntingtin^exon1 from CAD cells with or without β amyloid peptide; settings: 12.5 μg/ml β amyloid peptide, added 6 hours after transfection, media collected at 48 hours
Experimental: CAD cells were transiently transfected with GFP-tagged 72Q huntingtin^exon1 and a vector control, CSPα, DnaJB2long, or DnaJB6long. 6 hours after transfection, the cells were treated with 12.5 μg/ml β amyloid peptide (Aβ) or left untreated. 48 hours after transfection, the media was collected, EVs were prepared, and EV secretion of GFP-tagged 72Q huntingtin^exon1 was measured.

[2] = test system: CAD cells; test: Nanoscale flow cytometry of EVs secreted from CAD cells expressing GFP-72Q huntingtin^exon1
Experimental: (§1) Cell lines were transfected with the molecular chaperone CSPα and a GFP-tagged protein. CAD cells (catecholaminergic derived CNS cells) were the cell line utilized. Other cell lines, including patient-derived cell lines, may also be utilized. cDNAs encoding for myc-tagged CSPα or vector alone and GFP-72Q huntingtin^exon1 were transiently transfected with Lipofectamine™ 3000 (Invitrogen) in Opti-MEM™ medium. Media was changed to serum-free media 6 hours post-transfection. Media was collected 48 hours after transfection, spun at 300×g for 5 min to remove cell debris and evaluated without further processing by nanocyte tracking analysis, nanoscale flow cytometry analysis and dot blot analysis. For western blot analysis, EVs were isolated from the unfractionated media by exoquick precipitation solution (SBI) and solubilized in sample buffer. Following media collection, cell viability was determined using an XTT assay (New England Biolabs). When resveratrol was used, it was added to the serum-free media 6 hours post-transfection at the time of the media change.
For NTA and nanoscale flow cytometry analysis, all samples were diluted 25 fold using 0.2× phosphate buffered saline that had been filtered twice through 0.2 μm filter. For NTA analysis, all samples were analyzed using the Nanosight LM10 (405 nm laser, 60 mW, software version 3.00064). Samples were analyzed in triplicate for 60 seconds per replicate with a count range of 20-100 particles per frame. A variety of NIST (Thermo Scientific 3000 Series) standards were analyzed, each the day prior to sample analysis. The system was cleaned between each sample and checked for any sample carryover using the PBS diluent. NTA measures EVs within a size range from about 30 nm to about 1,000 nm.
Samples were similarly prepared for nanoscale flow cytometry as for NTA. All samples were analyzed using the Apogee A50 flow cytometry platform. Light scatter was provided using the 405 nm laser (75 mW); GFP signal was generated using the 488 nm laser (50 mW, 535/35) and far red signal was generated using the 630 nm laser (75 mW, 680/35). All samples were analyzed for 60 seconds. Optimization was performed to insure single EVs were being analyzed and single events were triggered by light scatter only. The system was cleaned each day prior to sample analysis and a variety of silica and polystyrene standards (Apogee 1493 standards) processed for instrument set up and QC. The silica standards were used to assess the relative size range of EVs. Nanoscale flow cytometry measures EVs within a size range from about 100 nm to about 1,300 nm. […]

[3] = test system: CAD cells; test: Cell viability after media collection (XTT assay); settings: various levels of CSPα expression
Experimental: as §1

[4] = cells express the protein, p<0.0001
[5] = presence of CSPα, no resveratrol

Row | Molecule | secretion of GFP-tagged 72Q huntingtin^exon1 by CSPα, DnaJB2long and DnaJB6long [1] | Secretion of EVs containing GFP-tagged 72Q huntingtin^exon1 [2, 4] | percentage of EVs containing GFP-72Q huntingtin^exon1 within the total EV pool [2, 4] | increase of export of EVs containing GFP-72Q huntingtin^exon1 within the 180-240 nm subpopulation ([2]; p<0.0001) [%] | EVs containing GFP cargo within the 180-240 nm subpopulation [2, 5] [%] | EVs containing GFP cargo within the <180 nm subpopulation [2, 5] [%] | EVs containing GFP cargo within the >240 nm subpopulation [2, 5] [%] | 180-240 nm EV export of GFP-72Q huntingtin^exon1 as a function of cellular CSPα expression ([2]; various levels of CSPα, parallel western blot) | Cell viability after media collection [3]
1 | β amyloid peptide: β amyloid peptide (Aβ, AggreSure™ obtained from AnaSpec) | increased the secretion of GFP-tagged 72Q huntingtin^exon1 | – | – | – | – | – | – | – | –
2 | B1 | – | dramatically increased | dramatically increased | > 400 | 1 | 0.06 | 1.6 | correlates with increases in 180-240 nm EV export | not influenced

Reference: patent US20220241202A1, “METHOD AND VEHICLE FOR DELIVERING AGENTS ACROSS THE BLOOD-BRAIN BARRIER” (priority 2019, published 2022)
